Reference: patent publication US20240279278A1, “NMU RECEPTOR 2 AGONISTS” (Boehringer Ingelheim International GmbH, priority 2023, published 2024)

T1: human neuromedin U receptor 1 (human, UniProt Q9HB89 24-426)
T1 sequence (looked up): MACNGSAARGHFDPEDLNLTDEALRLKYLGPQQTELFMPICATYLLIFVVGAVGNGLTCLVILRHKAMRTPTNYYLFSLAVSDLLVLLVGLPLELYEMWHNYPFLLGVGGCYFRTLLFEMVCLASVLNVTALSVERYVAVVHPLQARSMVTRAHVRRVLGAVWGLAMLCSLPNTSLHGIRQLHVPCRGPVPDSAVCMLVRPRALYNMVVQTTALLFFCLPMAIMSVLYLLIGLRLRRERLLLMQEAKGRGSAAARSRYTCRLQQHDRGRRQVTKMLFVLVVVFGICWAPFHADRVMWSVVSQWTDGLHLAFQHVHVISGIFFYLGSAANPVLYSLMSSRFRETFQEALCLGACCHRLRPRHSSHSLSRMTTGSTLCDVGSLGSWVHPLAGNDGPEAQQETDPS


What follows are binders tested against T1, human neuromedin U receptor 1 (assay: cell-based or functional assay).

EC50 (hNMUR1) buffer [nM]	Binder
610	EEEEXXXXXXXXXXXXXXXXYFLXKPRG (HELM PEPTIDE1{[O=C(O)CCCCCCCCCCCCCCCCCCC(=O)[*:2]].[gGlu].[gGlu].[gGlu].[gGlu].[Sar].[Sar].[Sar].[Sar].[Sar].[Sar].[Sar].[Sar].[Sar].[Sar].[Sar].[Sar].[Sar].[Sar].[Sar].[O=C(CN1CCN(CCN[*:1])CC1)[*:2]].Y.F.[meL].[Nle].K.P.R.G.[am]}$$$$V2.0; SMILES CCCC[C@H](NC(=O)[C@H](CC(C)C)N(C)C(=O)[C@H](Cc1ccccc1)NC(=O)[C@H](Cc1ccc(O)cc1)NC(=O)CN1CCN(CCNC(=O)CN(C)C(=O)CN(C)C(=O)CN(C)C(=O)CN(C)C(=O)CN(C)C(=O)CN(C)C(=O)CN(C)C(=O)CN(C)C(=O)CN(C)C(=O)CN(C)C(=O)CN(C)C(=O)CN(C)C(=O)CN(C)C(=O)CN(C)C(=O)CN(C)C(=O)CC[C@H](NC(=O)CC[C@H](NC(=O)CC[C@H](NC(=O)CC[C@H](NC(=O)CCCCCCCCCCCCCCCCCCC(=O)O)C(=O)O)C(=O)O)C(=O)O)C(=O)O)CC1)C(=O)N[C@@H](CCCCN)C(=O)N1CCC[C@H]1C(=O)N[C@@H](CCCNC(=N)N)C(=O)NCC(N)=O) [C20DA-gGlu4-Sar15-AEPipAc-Tyr-Phe-NMeLeu-Nle-Lys-Pro-Arg-Gly-NH2]
1400	EEEEXXXXXXXXXXXXXYFLXKARG (HELM PEPTIDE1{[O=C(O)CCCCCCCCCCCCCCCCCCC(=O)[*:2]].[gGlu].[gGlu].[gGlu].[gGlu].[Sar].[Sar].[Sar].[Sar].[Sar].[Sar].[Sar].[Sar].[Sar].[Sar].[Sar].[Sar].[O=C(CN1CCN(CCN[*:1])CC1)[*:2]].Y.F.[meL].[Nle].K.[meA].R.G.[am]}$$$$V2.0; SMILES CCCC[C@H](NC(=O)[C@H](CC(C)C)N(C)C(=O)[C@H](Cc1ccccc1)NC(=O)[C@H](Cc1ccc(O)cc1)NC(=O)CN1CCN(CCNC(=O)CN(C)C(=O)CN(C)C(=O)CN(C)C(=O)CN(C)C(=O)CN(C)C(=O)CN(C)C(=O)CN(C)C(=O)CN(C)C(=O)CN(C)C(=O)CN(C)C(=O)CN(C)C(=O)CN(C)C(=O)CC[C@H](NC(=O)CC[C@H](NC(=O)CC[C@H](NC(=O)CC[C@H](NC(=O)CCCCCCCCCCCCCCCCCCC(=O)O)C(=O)O)C(=O)O)C(=O)O)C(=O)O)CC1)C(=O)N[C@@H](CCCCN)C(=O)N(C)[C@@H](C)C(=O)N[C@@H](CCCNC(=N)N)C(=O)NCC(N)=O) [C20DA-gGlu4-Sar12-AEPipAc-Tyr-Phe-NMeLeu-Nle-Lys-NMeAla-Arg-Gly-NH2]
> 1000	EEEEXXXXXXXXXXXXXXXXYFLXXARG (HELM PEPTIDE1{[O=C(O)CCCCCCCCCCCCCCCCCCC(=O)[*:2]].[gGlu].[gGlu].[gGlu].[gGlu].[Sar].[Sar].[Sar].[Sar].[Sar].[Sar].[Sar].[Sar].[Sar].[Sar].[Sar].[Sar].[Sar].[Sar].[Sar].[O=C(CN1CCN(CCN[*:1])CC1)[*:2]].Y.F.[meL].[Nle].[Dab].[meA].R.G.[am]}$$$$V2.0; SMILES CCCC[C@H](NC(=O)[C@H](CC(C)C)N(C)C(=O)[C@H](Cc1ccccc1)NC(=O)[C@H](Cc1ccc(O)cc1)NC(=O)CN1CCN(CCNC(=O)CN(C)C(=O)CN(C)C(=O)CN(C)C(=O)CN(C)C(=O)CN(C)C(=O)CN(C)C(=O)CN(C)C(=O)CN(C)C(=O)CN(C)C(=O)CN(C)C(=O)CN(C)C(=O)CN(C)C(=O)CN(C)C(=O)CN(C)C(=O)CN(C)C(=O)CC[C@H](NC(=O)CC[C@H](NC(=O)CC[C@H](NC(=O)CC[C@H](NC(=O)CCCCCCCCCCCCCCCCCCC(=O)O)C(=O)O)C(=O)O)C(=O)O)C(=O)O)CC1)C(=O)N[C@@H](CCN)C(=O)N(C)[C@@H](C)C(=O)N[C@@H](CCCNC(=N)N)C(=O)NCC(N)=O) [C20DA-gGlu4-Sar15-AEPipAc-Tyr-Phe-NMeLeu-Nle-Dbu-NMeAla-Arg-Gly-NH2]
440	EEEEXXXXXXXXXXXXXXXXYFLXXPRG (HELM PEPTIDE1{[O=C(O)CCCCCCCCCCCCCCCCCCC(=O)[*:2]].[gGlu].[gGlu].[gGlu].[gGlu].[Sar].[Sar].[Sar].[Sar].[Sar].[Sar].[Sar].[Sar].[Sar].[Sar].[Sar].[Sar].[Sar].[Sar].[Sar].[O=C(CN1CCN(CCN[*:1])CC1)[*:2]].Y.F.[meL].[Nle].[Orn].P.R.G.[am]}$$$$V2.0; SMILES CCCC[C@H](NC(=O)[C@H](CC(C)C)N(C)C(=O)[C@H](Cc1ccccc1)NC(=O)[C@H](Cc1ccc(O)cc1)NC(=O)CN1CCN(CCNC(=O)CN(C)C(=O)CN(C)C(=O)CN(C)C(=O)CN(C)C(=O)CN(C)C(=O)CN(C)C(=O)CN(C)C(=O)CN(C)C(=O)CN(C)C(=O)CN(C)C(=O)CN(C)C(=O)CN(C)C(=O)CN(C)C(=O)CN(C)C(=O)CN(C)C(=O)CC[C@H](NC(=O)CC[C@H](NC(=O)CC[C@H](NC(=O)CC[C@H](NC(=O)CCCCCCCCCCCCCCCCCCC(=O)O)C(=O)O)C(=O)O)C(=O)O)C(=O)O)CC1)C(=O)N[C@@H](CCCN)C(=O)N1CCC[C@H]1C(=O)N[C@@H](CCCNC(=N)N)C(=O)NCC(N)=O) [C20DA-gGlu4-Sar15-AEPipAc-Tyr-Phe-NMeLeu-Nle-Orn-Pro-Arg-Gly-NH2]
> 1000	EEEEXXXXXXXXXXXXXXXXYFLXKARG (HELM PEPTIDE1{[O=C(O)CCCCCCCCCCCCCCCCCCC(=O)[*:2]].[gGlu].[gGlu].[gGlu].[gGlu].[Sar].[Sar].[Sar].[Sar].[Sar].[Sar].[Sar].[Sar].[Sar].[Sar].[Sar].[Sar].[Sar].[Sar].[Sar].[O=C(CN1CCN(CCN[*:1])CC1)[*:2]].Y.F.[meL].[Nle].K.[meA].R.G.[am]}$$$$V2.0; SMILES CCCC[C@H](NC(=O)[C@H](CC(C)C)N(C)C(=O)[C@H](Cc1ccccc1)NC(=O)[C@H](Cc1ccc(O)cc1)NC(=O)CN1CCN(CCNC(=O)CN(C)C(=O)CN(C)C(=O)CN(C)C(=O)CN(C)C(=O)CN(C)C(=O)CN(C)C(=O)CN(C)C(=O)CN(C)C(=O)CN(C)C(=O)CN(C)C(=O)CN(C)C(=O)CN(C)C(=O)CN(C)C(=O)CN(C)C(=O)CN(C)C(=O)CC[C@H](NC(=O)CC[C@H](NC(=O)CC[C@H](NC(=O)CC[C@H](NC(=O)CCCCCCCCCCCCCCCCCCC(=O)O)C(=O)O)C(=O)O)C(=O)O)C(=O)O)CC1)C(=O)N[C@@H](CCCCN)C(=O)N(C)[C@@H](C)C(=O)N[C@@H](CCCNC(=N)N)C(=O)NCC(N)=O) [C20DA-gGlu4-Sar15-AEPipAc-Tyr-Phe-NMeLeu-Nle-Lys-NMeAla-Arg-Gly-NH2]
> 1000	EEEXXXXXXXXXXXXXXXXYFLXXGRG (HELM PEPTIDE1{[O=C(O)CCCCCCCCCCCCCCCCCCC(=O)[*:2]].[gGlu].[gGlu].[gGlu].[Sar].[Sar].[Sar].[Sar].[Sar].[Sar].[Sar].[Sar].[Sar].[Sar].[Sar].[Sar].[Sar].[Sar].[Sar].[O=C(CN1CCN(CCN[*:1])CC1)[*:2]].Y.F.[meL].[Nle].[Orn].G.R.G.[am]}$$$$V2.0; SMILES CCCC[C@H](NC(=O)[C@H](CC(C)C)N(C)C(=O)[C@H](Cc1ccccc1)NC(=O)[C@H](Cc1ccc(O)cc1)NC(=O)CN1CCN(CCNC(=O)CN(C)C(=O)CN(C)C(=O)CN(C)C(=O)CN(C)C(=O)CN(C)C(=O)CN(C)C(=O)CN(C)C(=O)CN(C)C(=O)CN(C)C(=O)CN(C)C(=O)CN(C)C(=O)CN(C)C(=O)CN(C)C(=O)CN(C)C(=O)CN(C)C(=O)CC[C@H](NC(=O)CC[C@H](NC(=O)CC[C@H](NC(=O)CCCCCCCCCCCCCCCCCCC(=O)O)C(=O)O)C(=O)O)C(=O)O)CC1)C(=O)N[C@@H](CCCN)C(=O)NCC(=O)N[C@@H](CCCNC(=N)N)C(=O)NCC(N)=O) [C20DA-gGlu3-Sar15-AEPipAc-Tyr-Phe-NMeLeu-Nle-Orn-Gly-Arg-Gly-NH2]
